According to patent publication US7863432 (FORSCHUNGSVERBUND BERLIN E V, dated 2011):

Target: T1, RIIα-YFP fusion protein (regulatory subunit RIIα of human protein kinase A fused to yellow-fluorescent … (human, UniProt P13861 2-404))
T1 construct: whole, on cells; Expressed inside transfected HEK293 or CD8 cells (diffuse, cytosolic); also called regulatory RIIα subunit of PKA; not shown: yellow-fluorescent protein (YFP) encoded by vector pEYFP (BD Biosciences Clontech)
Experiment: FRET in two co-transfected HEK293 cells, time 0 min before peptide addition
Description: FRET measurements were performed 24-48 hours after transfection, using an epifluorescence microscope (Axiovert 200M, Carl Zeiss, Jena, Germany). The data were stored using the Openlab 2.25 software (Improvision, Coventry GB). Fluorescence was excited at a wavelength of 425 nm for CFP and 488 nm for YFP. […] Non-specific background fluorescence was determined in a region with no cells and subtracted.
This peptide inhibits the interaction between AKAP and regulatory PKA subunits in general (Klussmann et al., J. Biol. Chem. 274, 4934-4938, 1999; see schematic diagram in FIGS. 5A and B).

T1 sequence (P13861 2-404): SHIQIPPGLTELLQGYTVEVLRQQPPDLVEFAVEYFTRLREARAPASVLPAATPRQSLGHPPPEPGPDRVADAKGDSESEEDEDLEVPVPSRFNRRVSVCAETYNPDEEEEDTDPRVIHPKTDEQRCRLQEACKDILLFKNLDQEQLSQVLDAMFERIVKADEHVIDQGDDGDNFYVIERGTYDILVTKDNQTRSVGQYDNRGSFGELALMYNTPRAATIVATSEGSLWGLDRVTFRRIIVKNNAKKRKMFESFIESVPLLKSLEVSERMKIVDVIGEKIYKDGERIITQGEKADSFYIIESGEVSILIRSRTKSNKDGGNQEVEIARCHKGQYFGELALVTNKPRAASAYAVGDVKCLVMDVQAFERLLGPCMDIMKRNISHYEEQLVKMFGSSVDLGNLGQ

B1: AKAP18δ-CFP fusion protein (other)
chain: MERPAAGEIDANKCDHLSRGEEGTGDLETSPVGSLADLPFAAVDIQDDCGLPDVPQGNVPQGNPKRSKENRGDRNDHVKKRKKAKKDYQPNYFLSIPITNKKITAGIKVLQNSILRQDNRLTKAMVGDGSFHITLLVMQLLNEDEVNIGTDALLELKPFVEEILEGKHLTLPFHGIGTFQGQVGFVKLADGDHVSALLEIAETAKRTFQEKGILAGESRTFKPHLTFMKLSKAPMLWKKGVRKIEPGLYEQFIDHRFGEEILYQIDLCSMLKKKQSNGYYHCESSIVIGEKDRKEPEDAELVRLSKRLVENAVLKAVQQYLEETQNKKQPGEGNSVKAEEGDRNGDGSDNNRK
notes: Expressed inside transfected HEK293 or CD8 cells (diffuse, cytosolic); also called AKAP186; AKAP188; not shown: cyan-fluorescent protein (CFP) encoded by vector pECFP (BD Biosciences Clontech)
- 535/480 ratio (FRET signal) prior to addition of S-Ht31: ~1.3
